Legend:
[1] = biological target: human IgG1 (coupled to the sensor chip) (human); assay: SPR, Biacore X-100, single cycle kinetics, human IgG1 coupled to the chip, scFv as analyte
[2] = biological target: human serum-derived IgG polyclonal antibody (WAKO) (human); assay: affinity column breakthrough curve; scFv (5.0 mg) immobilized on HiTrap NHS-activated HP 1 mL, polyclonal human IgG 1 mg/mL at 1 mL/min
[3] = biological target: human serum-derived IgG polyclonal antibody (WAKO) (human); assay: affinity column breakthrough curve; scFv immobilized on HiTrap NHS-activated HP 1 mL, polyclonal human IgG 1 mg/mL at 1 mL/min

Row | Binder | Kd [1] | koff [1] | kon [1] | [10% DBC (mg/mL) at flow rate of 1.0 mL/min]/[amount of protein immobilized on column (mg)] [2] | [10% DBC (mg/mL) at flow rate of 1.0 mL/min]/[amount of protein immobilized on column (mg)] [3]
1 | R3-26 repCK+K5 (scFv) scFv: QEQLVESGGGLVTPGGTLTLTCTVSGIDLSSYAMSWVRQVPGEGLEWIGIIGSGGGTAYANWARGRFTISRTSSTTVDLRMTSLTTEDTATYFCATDYGIYGYAYGHLWGPGTLVTVTSGGGGSGGGGSGGGGSELVMTQTASPVSAAVGGTVTINCQASQSISTALAWYQQRPGQPPRLLIYDASTLASGVSSRFSGSGSGTEFTLTISDLESADAATYYCQTYFGSDTDNAFGEGTEVEITGSAAAGGGGSKKKKKIE | 2.4 nM | 0.00017 s⁻¹ | 70000 M⁻¹ s⁻¹ | 1.4 (mg/mL)/mg | 
2 | R3-26 repCK+K3 (scFv) scFv: QEQLVESGGGLVTPGGTLTLTCTVSGIDLSSYAMSWVRQVPGEGLEWIGIIGSGGGTAYANWARGRFTISRTSSTTVDLRMTSLTTEDTATYFCATDYGIYGYAYGHLWGPGTLVTVTSGGGGSGGGGSGGGGSELVMTQTASPVSAAVGGTVTINCQASQSISTALAWYQQRPGQPPRLLIYDASTLASGVSSRFSGSGSGTEFTLTISDLESADAATYYCQTYFGSDTDNAFGEGTEVEITGSAAAGGGGSKKKIE | 1.7 nM | 0.0001 s⁻¹ | 61000 M⁻¹ s⁻¹ | 1.26 (mg/mL)/mg | 
3 | R3-26 repCK+K (scFv) scFv: QEQLVESGGGLVTPGGTLTLTCTVSGIDLSSYAMSWVRQVPGEGLEWIGIIGSGGGTAYANWARGRFTISRTSSTTVDLRMTSLTTEDTATYFCATDYGIYGYAYGHLWGPGTLVTVTSGGGGSGGGGSGGGGSELVMTQTASPVSAAVGGTVTINCQASQSISTALAWYQQRPGQPPRLLIYDASTLASGVSSRFSGSGSGTEFTLTISDLESADAATYYCQTYFGSDTDNAFGEGTEVEITGSAAAGGGGSKIE | 1.6 nM | 9.1e-05 s⁻¹ | 56000 M⁻¹ s⁻¹ |  | 0.63 (mg/mL)/mg
